The supplement of paper PMC10567573

B1: SMOC2 (parent)
chain: PALETQPQGDEEDIASRYPTLWTE

Variants of: B1
Test: protein stability index of a GFP-peptide fusion (GPS, HEK-293T) (PSI 1-6); higher = more stable
Settings: c terminus: a fixed tail appended
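Further: lentivirally expressed fusions sorted by FACS into six bins by GFP to DsRed ratio, PSI derived from sequencing read proportions per bin multiplied by bin number.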

Protein stability index, by site and new letter:
P7: S 4.68; W 4.02; Q 5.02; K 3.38; Y 4.28; H 4.29; N 4.48; L 4.6; M 4.62; F 4.08; T 4.54; I 5.37; C 4.46; A 4.07; E 4.67; R 3.81; D 4.67; G 4.5; V 4.06
T20: C 3.77; A 4.31; G 4.41; F 4.6; H 4.87; D 5.59; E 4.41
Q8: H 4.96; C 5.05; L 4.05; F 4.48; A 4.88; I 5.02; T 4.86; R 4.6; M 4.87; E 5.1; G 3.6; D 5.29; Y 3.89; K 3.9; V 5.17; W 4.16; S 4.74; N 5.23; P 4.33
I14: Q 4.4; W 3.97; D 5.77; T 5.06; A 4.79; S 4.64; G 4.53; P 4.99; H 4.65; M 3.95; C 4.14; F 4.42; V 4.19; Y 4.39; E 4.79; N 5.01; K 3.96
L3: C 5.01; Q 4.97; N 4.23; H 4.36; R 4.44; D 5.37; K 4.27; P 5.08; E 5.59; S 5.03; I 5.31; W 4.04; M 4.83; T 4.9; V 4.87; Y 4.81; F 4.85; G 4.33
G9: E 5.22; F 4.89; L 4.84; V 4.87; T 4.97; S 5.09; H 4.71; N 4.78; C 5.16; D 4.63; A 4.92; R 4.34; Y 4.74; P 4.88; W 4.62; K 4.55; M 4.76; I 4.08
A15: L 4.76; S 3.88; K 3.78; D 4.33; T 4.36; E 4.29; R 4.53; I 4.57; C 4.1; M 4.67; F 4.34; H 4.11; W 4.14; G 4.63; Y 4.53; Q 4.42; V 3.87; N 4.36
A2: K 4.13; W 3.88; I 4.07; V 4.67; M 4.6; L 5.17; T 4.11; Y 4.61; Q 4.54; R 3.7; S 4.88; N 5.04
R17: A 4.81; M 4.94; H 4.38; C 3.2; P 4.53; G 4.71; T 4.29; D 4.94; V 4.36; W 4.2; S 4.26; K 4.35; N 4.23; Q 4.78; F 3.82; I 4.73; E 4.5; Y 3.69; L 4.72
E11: N 4.26; I 3.36; V 4.24; L 3.84; S 4.38; Y 4.02; A 3.79; W 3.96; T 4.18; R 3.98; D 4.21; P 4.82; G 4.04; Q 4.22; C 4.43; M 3.59; K 3.92; F 3.95; H 3.41
Q6: W 4.15; I 4.77; T 4.7; L 4; C 4.7; R 4.34; G 5.04; K 4.26; V 3.97; M 4.13; F 4.25; A 4.44; E 4.39; N 4.3; P 4.55; D 4.92; Y 4.66; H 4.73
Y18: G 4.61; K 3.34; I 4.18; R 4.53; S 4.65; A 4.64; Q 4.39; N 4.24; T 4.67; C 4.32; M 4.59; E 4.74; W 4.6; L 4.42; H 4.87; P 4.14; D 5.89; V 4.07; F 4.25
T5: I 4.45; S 4.3; F 4.58; V 3.77; W 4.51; P 4.58; M 5.01; G 4.3; E 4.99; N 4.54; L 4.45; Y 4.65; R 4.93; D 5.12; Q 4.72; A 4.8; H 4.64; C 4.61; K 3.88
E4: N 4.31; F 3.64; L 4.22; W 3.52; V 4.11; A 4.42; G 4.07; R 3.77; S 4.32; M 3.95; T 4.46; D 4.91; K 4.31; Y 2.74; I 3.21; Q 4.9; H 3.77; C 3.96
D13: L 3.84; C 3.9; H 3.71; Y 3.59; K 2.67; R 4.14; A 4.35; G 3.85; T 4.23; Q 4.21; I 3.65; F 4.14; V 3.93; P 3.63; N 4.23; M 4.09; E 3.76; S 3.97; W 4.68
E12: A 3.94; K 3.56; P 4.33; T 4.34; L 3.68; R 3.93; D 4.41; G 2.63; C 4.12; V 3.75; W 3.39; I 3.68; F 4.2; N 4.11; H 3.74; Y 3.75; Q 4.42; S 4.46; M 3.7
S16: C 4.63; M 5.09; A 4.5; V 5.14; E 4.94; W 3.99; H 3.96; Y 4.31; L 4.81; D 4.76; I 4.52; T 4.39; K 4.18; Q 5.17; N 4.56; R 4.3; F 4.61; G 5.21; P 5.27
D10: R 3.86; F 3.39; S 4.44; N 4.49; M 3.05; W 3.98; E 4.16; C 3.36; G 3.68; A 4.36; L 4.33; V 3.69; K 3.53; Y 3.51; H 3.56; T 4.14; P 4.6; Q 4.41; I 3.68
P19: G 4.87; A 5.73; Y 4.45; N 4.72; I 4.24; K 4.32; D 4.97; H 4.18; E 5.49; S 4.6; L 4.87; Q 5.13; V 5.11; R 4.2; F 4.87; M 4.32; T 4.53; C 5.15
